Source: PMC5985231

Biological target: insulin receptor extracellular domain, short isoform (IR-A)
Experiment: SPR

With “insulin (from UniProt P01308 25-54; P01308 90-110) (ligand)” the Kd was greater than 122 nM.
